Patent US20240116985A1 (published 2024)
Starred links: 1 amine or outer side, 2 acyl side, 3 side chain; linkers in the order of their positions; H or OH if unused. Positions of bridges follow the written chain, without caps; N, C: chain ends. Non-standard residues stand in square brackets, D forms with d. Primed or numbered codes have the meaning given here. PyrS2″ = (S)-3-amino-1-((pent-4-en-1-yloxy)carbonyl)pyrrolidine-3-carboxylic acid (stapling residue), C=CCCCOC(=O)N1CC[C@@](N[*:1])(C(=O)[*:2])C1; B5(4) = 2,2-bis(4-pentenyl)glycine = 2-amino-2-(pent-4-en-1-yl)hept-6-enoic acid (stitching residue), C=CCCCC(CCCC=C)(N[*:1])C(=O)[*:2]; B5(3) = 2,2-bis(4-pentenyl)glycine (stitching residue), C=CCCCC(CCCC=C)(N[*:1])C(=O)[*:2]; Phe(3-COOH) = N[C@@H](Cc1cccc(C(=O)O)c1)C(=O)O; 2F3MeF = Cc1cccc(C[C@H](N[*:1])C(=O)[*:2])c1F; Phe(2-CF3) = N[C@@H](Cc1ccccc1C(F)(F)F)C(=O)O; Phe(2-Cl) = N[C@@H](Cc1ccccc1Cl)C(=O)O; Met(O2) = CS(=O)(=O)CC[C@H](N)C(=O)O; Bta = N[C@@H](Cc1csc2ccccc12)C(=O)O; Lys(iPr) = CC(C)NCCCC[C@H](N)C(=O)O; αAllylPro = C=CC[C@@]1(C(=O)O)CCCN1; tBuAla = CC(C)(C)C[C@H](N)C(=O)O; 3Thi = N[C@@H](Cc1ccsc1)C(=O)O; Cha = N[C@@H](CC1CCCCC1)C(=O)O; PyrS2(4) = not defined here; hSer = N[C@@H](CCO)C(=O)O; Nle = CCCC[C@H](N)C(=O)O

T1: B-cat-Halo (UniProt P35222 1-781, HaloTag NanoBRET 618 Ligand bound in the assay)
T1 sequence (looked up): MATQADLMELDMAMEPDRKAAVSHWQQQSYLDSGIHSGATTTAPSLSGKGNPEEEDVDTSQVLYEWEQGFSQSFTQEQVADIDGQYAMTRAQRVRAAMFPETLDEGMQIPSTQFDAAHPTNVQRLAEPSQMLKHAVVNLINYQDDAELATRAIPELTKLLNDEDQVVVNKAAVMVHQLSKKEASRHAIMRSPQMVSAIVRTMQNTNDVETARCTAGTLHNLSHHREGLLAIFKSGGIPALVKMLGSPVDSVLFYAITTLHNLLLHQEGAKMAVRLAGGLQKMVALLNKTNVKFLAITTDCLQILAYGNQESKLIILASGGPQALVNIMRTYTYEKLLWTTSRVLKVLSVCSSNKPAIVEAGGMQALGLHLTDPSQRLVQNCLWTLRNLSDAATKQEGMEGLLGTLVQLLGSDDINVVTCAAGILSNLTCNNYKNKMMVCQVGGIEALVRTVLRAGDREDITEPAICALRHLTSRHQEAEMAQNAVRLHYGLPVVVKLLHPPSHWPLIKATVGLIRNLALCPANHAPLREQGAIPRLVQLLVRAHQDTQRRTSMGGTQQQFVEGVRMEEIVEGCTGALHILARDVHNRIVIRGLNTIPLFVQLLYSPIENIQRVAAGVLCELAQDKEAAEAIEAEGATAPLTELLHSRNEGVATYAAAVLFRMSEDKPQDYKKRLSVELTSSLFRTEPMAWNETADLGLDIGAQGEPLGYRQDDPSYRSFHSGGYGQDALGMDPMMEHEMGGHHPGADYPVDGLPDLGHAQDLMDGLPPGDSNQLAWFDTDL

T2: B-cat-Halo (beta-catenin HaloTag construct expressed in HEK293 cells) (UniProt P35222 1-781)
T2 sequence (looked up): T1 sequence (looked up)

T3: Bcat-Halo (UniProt P35222 1-781)
T3 sequence (looked up): T1 sequence (looked up)

B1: I-2535 (peptide)
peptide: Ac-[αAllylPro]D[tBuAla][B5(4)]D[Phe(3-COOH)]AAF[Me2Gln][PyrS2″][2F3MeF][Bta][Me2Gln]-NH2
modifications: staple 1-4, 4-11; not fully specified; printed as Ac-PL3-Asp-Npg-B5-Asp-3COOHF-Ala-Ala-Phe-Me2Gln-PyrS2-2F3MeF-BztA-Me2Gln-NH2
B2: I-2536 (peptide)
peptide: Ac-[αAllylPro]D[tBuAla][B5(4)]D[Phe(3-COOH)]AAF[Me2Gln][PyrS2″][2F3MeF][Bta][Me2Gln]-NH2
modifications: staple 1-4, 4-11; not fully specified; printed as Ac-PL3-Asp-Npg-B5-Asp-3COOHF-Ala-Ala-Phe-Me2Gln-PyrS2-2F3MeF-BztA-Me2Gln-NH2
B3: I-2534 (peptide)
peptide: Ac-[αAllylPro]D[tBuAla][B5(4)]D[Phe(3-COOH)]AAFF[PyrS2″][Phe(2-CF3)][Bta][Me2Gln]-NH2
modifications: staple 1-4, 4-11
B4: I-2533 (peptide)
peptide: Ac-[αAllylPro]D[tBuAla][B5(4)]D[Phe(3-COOH)]AAF[Nle][PyrS2″][2F3MeF][Bta][Me2Gln]-NH2
modifications: staple 1-4, 4-11
B5: I-2054 (peptide)
peptide: Ac-[αAllylPro]D[tBuAla][B5(4)]D[Phe(3-COOH)]QAFV[PyrS2″][3Thi][Bta]A-NH2
modifications: staple 1-4, 4-11
B6: I-2053 (peptide)
peptide: Ac-[αAllylPro]D[tBuAla][B5(3)]D[Phe(3-COOH)]QAFA[PyrS2(4)][3Thi][Bta]A-NH2
modifications: staple 1-4, 4-11; reading uncertain; also: printed as Ac-PL3-Asp-Npg-B5-Asp-3COOHF-Gln-Ala-Phe-Ala-PyrS2-3Thi-BztA-Ala-NH2
B7: I-2069 (peptide)
peptide: Ac-[αAllylPro]N[Cha][B5(4)]DQHAFN[PyrS2″]F[Bta]A-NH2
modifications: staple 1-4, 4-11
B8: I-2055 (peptide)
peptide: Ac-[αAllylPro]D[tBuAla][B5(4)]D[Phe(3-COOH)]QAFL[PyrS2(4)][3Thi][Bta]V-NH2
modifications: staple 1-4, 4-11; reading uncertain; also: printed as Ac-PL3-Asp-Npg-B5-Asp-3COOHF-Gln-Ala-Phe-Leu-PyrS2-3Thi-BztA-Val-NH2
B9: I-2059 (peptide)
peptide: Ac-[αAllylPro]D[tBuAla][B5(4)]D[Phe(3-COOH)]SAFL[PyrS2″][Phe(2-CF3)][Bta]A-NH2
modifications: staple 1-4, 4-11
B10: I-2067 (peptide)
peptide: Ac-[αAllylPro]N[Cha][B5(4)]DQQAFN[PyrS2″]F[Bta][hSer]-NH2
modifications: staple 1-4, 4-11
B11: I-2070 (peptide)
peptide: Ac-[αAllylPro]N[Cha][B5(4)]DQQAFN[PyrS2″]F[Bta]A-NH2
modifications: staple 1-4, 4-11
B12: I-2058 (peptide)
peptide: Ac-[αAllylPro]D[tBuAla][B5(4)]D[Phe(3-COOH)]NAFL[PyrS2″][Phe(2-CF3)][Bta]A-NH2
modifications: staple 1-4, 4-11
B13: I-2052 (peptide)
peptide: Ac-[αAllylPro]D[tBuAla][B5(3)]D[Phe(3-COOH)]QAFF[PyrS2″][3Thi][Bta]A-NH2
modifications: staple 1-4, 4-11
B14: I-2068 (peptide)
peptide: Ac-[αAllylPro]N[Cha][B5(4)]DQ[Lys(iPr)]AFN[PyrS2″]F[Bta]F-NH2
modifications: staple 1-4, 4-11
B15: I-2063 (peptide)
peptide: Ac-[αAllylPro]D[tBuAla][B5(4)]D[Phe(3-COOH)]AAFL[PyrS2″][Phe(2-CF3)][Bta][Met(O2)]-NH2
modifications: staple 1-4, 4-11
B16: I-2065 (peptide)
peptide: Ac-[αAllylPro]N[Cha][B5(4)]DQ[Lys(iPr)]AFN[PyrS2″]F[Bta]A-NH2
modifications: staple 1-4, 4-11
B17: I-2051 (peptide)
peptide: Ac-[αAllylPro]D[tBuAla][B5(3)]D[Phe(3-COOH)]TAFL[PyrS2″][3Thi][Bta]A-NH2
modifications: staple 1-4, 4-11
B18: I-2056 (peptide)
peptide: Ac-[αAllylPro]D[tBuAla][B5(4)]D[Phe(3-COOH)]QAFL[PyrS2″][3Thi][Bta]L-NH2
modifications: staple 1-4, 4-11
B19: I-2062 (peptide)
peptide: Ac-[αAllylPro]D[tBuAla][B5(4)]D[Phe(3-COOH)]AAFL[PyrS2″][Phe(2-Cl)][Bta][Met(O2)]-NH2
modifications: staple 1-4, 4-11
B20: I-2064 (peptide)
peptide: Ac-[αAllylPro]D[tBuAla][B5(4)]D[Phe(3-COOH)][Met(O2)]AFL[PyrS2″][3Thi][Bta]A-NH2
modifications: staple 1-4, 4-11
B21: I-2060 (peptide)
peptide: Ac-[αAllylPro]D[tBuAla][B5(4)]D[Phe(3-COOH)]TAFL[PyrS2″][Phe(2-CF3)][Bta]A-NH2
modifications: staple 1-4, 4-11
B22: I-2088 (peptide)
peptide: Ac-[αAllylPro]D[tBuAla][B5(4)]D[Phe(3-COOH)]AAFL[PyrS2″][3Thi][Bta][dQ]-NH2
modifications: staple 1-4, 4-11
B23: I-2089 (peptide)
peptide: Ac-[αAllylPro]D[tBuAla][B5(4)]D[Phe(3-COOH)]AAFL[PyrS2(4)][2F3MeF][Bta][dQ]-NH2
modifications: staple 1-4, 4-11; reading uncertain
B24: I-2091 (peptide)
peptide: Ac-[αAllylPro]D[tBuAla][B5(4)]D[Phe(3-COOH)]AAFL[PyrS2″][Phe(2-CF3)][Bta][dA]-NH2
modifications: staple 1-4, 4-11
B25: I-2093 (peptide)
peptide: Ac-[αAllylPro]D[tBuAla][B5(4)]D[Phe(3-COOH)]AAFF[PyrS2″][Phe(2-CF3)][Bta][dQ]-NH2
modifications: staple 1-4, 4-11
B26: I-2092 (peptide)
peptide: Ac-[αAllylPro]D[tBuAla][B5(4)]D[Phe(3-COOH)]AAFF[PyrS2″][3Thi][Bta][dQ]-NH2
modifications: staple 1-4, 4-11
B27: I-2095 (peptide)
peptide: Ac-[αAllylPro]D[tBuAla][B5(4)]D[Phe(3-COOH)]AAFF[PyrS2″][2F3MeF][Bta][dA]-NH2
modifications: staple 1-4, 4-11
B28: I-2094 (peptide)
peptide: Ac-[αAllylPro]D[tBuAla][B5(4)]D[Phe(3-COOH)]AAFF[PyrS2(4)][3Thi][Bta][dA]-NH2
modifications: staple 1-4, 4-11; reading uncertain
B29: I-2090 (peptide)
peptide: Ac-[αAllylPro]D[tBuAla][B5(4)]D[Phe(3-COOH)]AAFL[PyrS2(4)][3Thi][Bta][dA]-NH2
modifications: staple 1-4, 4-11; reading uncertain

Molecular target: T1, B-cat-Halo
Experiment: cell-based or functional assay

Binder	NanoBRET Abs IC50
B1	3.7 µM
B2	4.5 µM
B3	4.4 µM
B4	6.2 µM

Molecular target: T2, B-cat-Halo (beta-catenin HaloTag …)
Experiment: cell-based or functional assay

Binder	NanoBRET Abs IC50
B5	2.4 µM
B6	5 µM
B7	> 20 µM
B8	10.5 µM
B9	4.8 µM
B10	> 20 µM
B11	> 20 µM
B12	3.9 µM
B13	6 µM
B14	> 20 µM
B15	3.5 µM
B16	> 20 µM
B17	8.3 µM
B18	6.5 µM
B19	3 µM
B20	11.8 µM
B21	9.6 µM

Molecular target: T3, Bcat-Halo
Experiment: cell-based or functional assay

Binder	NanoBRET Abs IC50
B22	4.4 µM
B23	2.9 µM
B24	6.2 µM
B25	5 µM
B26	4.4 µM
B27	10.5 µM
B28	9.7 µM
B29	5.9 µM
